B1: Azoarcus group I ribozyme (parent)
chain: GUGCCUUGCGCCGGGAAACCACGCAAGGGAUGGUGUCAAAUUCGGCGAAACCUAAGCGCCCGCCCGGGCGUAUGGCAACGCCGAGCCAAGCUUCGGCGCCUGCGCCGAUGAAGGUGUAGAGACUAGACGGCACCCACCUAAGGCAAACGCUAUGGUGAAGGCAUAGUCCAGGGAGUGGCGAAAGUCACACAAACCGG

Variants of: B1
Experiment: reverse-splicing fitness (ratio to wild type); higher = more active; in vitro selection; Mg2+ level not given
How it was run: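 An in vitro group I ribozyme library with randomized positions was T7-transcribed and gel-purified. In triplicate, 10 pmol RNA in EPPS pH 7.5 was reacted with 50 pmoles of a 30-nt RNA substrate for 1 h at 37 °C across several added MgCl2 levels (1–48 mM), then stopped with EDTA. Products were reverse transcribed from a substrate-complementary primer, PCR-amplified and sequenced (HiSeq 4000). Fitness is a variant's read proportion after selection over that before, normalised to wild type.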

Variant | reverse-splicing fitness
GUGCCUUGCGCCGGGAAACCACGCAAGGGAUGGUGUCAAAUUCGGCGAAACCUAAGCGCCCGCCCGGGCGUAUGGCAACGCUGAGCCAAGCUUCGGCGCCUGCGCCGAUGGAGGUGUAGAGACUAGACGGCACCCACCUAAGGCAAACGGUAUGGUGAAGGCAUAGUCCAGGGAGGGGCGAAAGUCACACAAACCGG [C82U A111G C150G U176G] | 0.00391
GUGCCUUGCGCCGGGAAACCACGCAAGGGAUGGUGUCAAAUUCGGCGAAACCUAAGCGCCCGCCCGGGCGUAUGGCAACGCUGAGCCAAGCUUCGGCGCCUGCGCCGAUGGAGGUGUAGAGACUAGACGGCACCCACCUAAGGCAAACGUUAUGGUGAAGGCAUAGUCCAGGGAGUGGCGAAAGUCACACAAACCGG [C82U A111G C150U] | 0.224
GUGCCUUGCGCCGGGAAACCACGCAAGGGAUGGUGUCAAAUUCGGCGAAACCUAAGCGCCCGCCCGGGCGUAUGGCAACGCUGAGCCAAGCUUCGGCGCCUGCGCCGAUGGAGGUGUAGAGACUAGACGGCACCCACCUAAGGCAAACGUUAUGGUGAAGGCAUAGUCAAGGGAGUGGCGAAAGUCACACAAACCGG [C82U A111G C150U C169A] | 0.00959
GUGCCUUGCGCCGGGAAACCACGCAAGGGAUGGUGUCAAAUUCGGCGAAACCUAAGCGCCCGCCCGGGCGUAUGGCAACGCUGAGCCAAGCUUCGGCGCCUGCGCCGAUGGAGGUGUAGAGACUAGACGGCACCCACCUAAGGCAAACGUUAUGGUGAAGGCAUAGUCAAGGGAGAGGCGAAAGUCACACAAACCGG [C82U A111G C150U C169A U176A] | 0.0145
GUGCCUUGCGCCGGGAAACCACGCAAGGGAUGGUGUCAAAUUCGGCGAAACCUAAGCGCCCGCCCGGGCGUAUGGCAACGCUGAGCCAAGCUUCGGCGCCUGCGCCGAUGGAGGUGUAGAGACUAGACGGCACCCACCUAAGGCAAACGUUAUGGUGAAGGCAUAGUCAAGGGAGCGGCGAAAGUCACACAAACCGG [C82U A111G C150U C169A U176C] | 0.0135
GUGCCUUGCGCCGGGAAACCACGCAAGGGAUGGUGUCAAAUUCGGCGAAACCUAAGCGCCCGCCCGGGCGUAUGGCAACGCUGAGCCAAGCUUCGGCGCCUGCGCCGAUGGAGGUGUAGAGACUAGACGGCACCCACCUAAGGCAAACGUUAUGGUGAAGGCAUAGUCAAGGGAGGGGCGAAAGUCACACAAACCGG [C82U A111G C150U C169A U176G] | 0.00543
GUGCCUUGCGCCGGGAAACCACGCAAGGGAUGGUGUCAAAUUCGGCGAAACCUAAGCGCCCGCCCGGGCGUAUGGCAACGCUGAGCCAAGCUUCGGCGCCUGCGCCGAUGGAGGUGUAGAGACUAGACGGCACCCACCUAAGGCAAACGUUAUGGUGAAGGCAUAGUCGAGGGAGUGGCGAAAGUCACACAAACCGG [C82U A111G C150U C169G] | 0.0092
GUGCCUUGCGCCGGGAAACCACGCAAGGGAUGGUGUCAAAUUCGGCGAAACCUAAGCGCCCGCCCGGGCGUAUGGCAACGCUGAGCCAAGCUUCGGCGCCUGCGCCGAUGGAGGUGUAGAGACUAGACGGCACCCACCUAAGGCAAACGUUAUGGUGAAGGCAUAGUCGAGGGAGAGGCGAAAGUCACACAAACCGG [C82U A111G C150U C169G U176A] | 0.0191
GUGCCUUGCGCCGGGAAACCACGCAAGGGAUGGUGUCAAAUUCGGCGAAACCUAAGCGCCCGCCCGGGCGUAUGGCAACGCUGAGCCAAGCUUCGGCGCCUGCGCCGAUGGAGGUGUAGAGACUAGACGGCACCCACCUAAGGCAAACGUUAUGGUGAAGGCAUAGUCGAGGGAGCGGCGAAAGUCACACAAACCGG [C82U A111G C150U C169G U176C] | 0.0162
GUGCCUUGCGCCGGGAAACCACGCAAGGGAUGGUGUCAAAUUCGGCGAAACCUAAGCGCCCGCCCGGGCGUAUGGCAACGCUGAGCCAAGCUUCGGCGCCUGCGCCGAUGGAGGUGUAGAGACUAGACGGCACCCACCUAAGGCAAACGUUAUGGUGAAGGCAUAGUCGAGGGAGGGGCGAAAGUCACACAAACCGG [C82U A111G C150U C169G U176G] | 0.00558
GUGCCUUGCGCCGGGAAACCACGCAAGGGAUGGUGUCAAAUUCGGCGAAACCUAAGCGCCCGCCCGGGCGUAUGGCAACGCUGAGCCAAGCUUCGGCGCCUGCGCCGAUGGAGGUGUAGAGACUAGACGGCACCCACCUAAGGCAAACGUUAUGGUGAAGGCAUAGUCUAGGGAGUGGCGAAAGUCACACAAACCGG [C82U A111G C150U C169U] | 0.0108
GUGCCUUGCGCCGGGAAACCACGCAAGGGAUGGUGUCAAAUUCGGCGAAACCUAAGCGCCCGCCCGGGCGUAUGGCAACGCUGAGCCAAGCUUCGGCGCCUGCGCCGAUGGAGGUGUAGAGACUAGACGGCACCCACCUAAGGCAAACGUUAUGGUGAAGGCAUAGUCUAGGGAGAGGCGAAAGUCACACAAACCGG [C82U A111G C150U C169U U176A] | 0.0126
GUGCCUUGCGCCGGGAAACCACGCAAGGGAUGGUGUCAAAUUCGGCGAAACCUAAGCGCCCGCCCGGGCGUAUGGCAACGCUGAGCCAAGCUUCGGCGCCUGCGCCGAUGGAGGUGUAGAGACUAGACGGCACCCACCUAAGGCAAACGUUAUGGUGAAGGCAUAGUCUAGGGAGCGGCGAAAGUCACACAAACCGG [C82U A111G C150U C169U U176C] | 0.0133
GUGCCUUGCGCCGGGAAACCACGCAAGGGAUGGUGUCAAAUUCGGCGAAACCUAAGCGCCCGCCCGGGCGUAUGGCAACGCUGAGCCAAGCUUCGGCGCCUGCGCCGAUGGAGGUGUAGAGACUAGACGGCACCCACCUAAGGCAAACGUUAUGGUGAAGGCAUAGUCUAGGGAGGGGCGAAAGUCACACAAACCGG [C82U A111G C150U C169U U176G] | 0.00589
GUGCCUUGCGCCGGGAAACCACGCAAGGGAUGGUGUCAAAUUCGGCGAAACCUAAGCGCCCGCCCGGGCGUAUGGCAACGCUGAGCCAAGCUUCGGCGCCUGCGCCGAUGGAGGUGUAGAGACUAGACGGCACCCACCUAAGGCAAACGUUAUGGUGAAGGCAUAGUCCAGGGAGAGGCGAAAGUCACACAAACCGG [C82U A111G C150U U176A] | 0.102
